# Results published in patent US20220169693A1, “Screening Assays, Modulators and Modulation of Intracellular Signalling Mediated by Immunoglobulin Superfamily Cell Adhesion Molecules” (Monash University, priority 2018, published 2022).
# Key:
# AT1R-CHO cells = assay: p65 expression in AT1R-CHO cells expressing the truncated construct alone; format: cell-based, Chinese Hamster; conditions: for induction of p65 expression by Ang II when the construct alone is expressed: AT1R-CHO cells, Ang II 1 μM (FIG. 3A, 5A, 5B); for induction of p65 expression following exposure to S100A8/9 when the construct alone is expressed: S100A8/9 1 μM (FIG. 4A)
# Description: (§1) Adult retinal pigment epithelial (ARPE) cells were cultured in Dulbecco's modified Eagle's medium (DMEM)/F12 endothelial cell growth supplement (ECGS) supplemented media. Chinese Hamster Ovary (CHO) cells were cultured using F12 media (10% FCS with 2 mM glutamine). Human microvascular endothelial cells (HMEC) were cultured in MCDB 131 medium (10% FCS with 10 mM glutamine, EGF and hydrocortisone).
# (§2) 100 ng of AT1R-Rluc8 construct was transfected into CHO cells using Lipofectamine 2000 (Thermo). Stable transfectants were selected using G418. AT1R-CHO were then transiently transfected with the IgSF CAM and/or RAGE constructs using Lipofectamine 2000 (Invitrogen) and incubated for 16h.
# (§3) Oligonucleotides were designed and ordered to generate the ALCAM, BCAM and MCAM intracellular (cytosolic) domains. These included a 5′ NheI site, Kozak sequence and initiating Methionine and then DNA sequences corresponding to ALCAM residues 552-583, BCAM residues 569-628 and MCAM residues 584-637 respectively (Note that as residue 551 of ALCAM is Methionine, the cytosolic tail of ALCAM effectively corresponded to residues 551-583). The pCIneo parental vector was digested with NheI and NotI restriction enzymes, and the DNA of the fragments of the ALCAM, BCAM and MCAM tails/cytosolic domains were ligated into the digested plasmid. After transformation and recovery, colonies were screened and individual clones sequenced. The sequence of the insert was confirmed by DNA sequencing (Micromon, Monash University). A full-length clone of Mouse ALCAM (BC027280) was purchased from Origene. The untagged clone was supplied in the vector pCMV6. Overlapping DNA sequences were ordered to generate the ALCAM559-580 fragment oligonucleotide. These included a 5′ NheI site, Kozak sequence and initiating Methionine and then DNA sequences corresponding to ALCAM residues 559-580. The pCIneo parental vector was digested with NheI and NotI restriction enzymes, and the ALCAM559-580 construct DNA was ligated into the digested plasmid. After transformation and recovery, colonies were screened and individual clones sequenced.
# (§4) After 2 hours of exposure to Ang II (1 μM) cells were placed in Trizol, mRNA extracted and cDNA synthesized. Changes in the gene expression of the NFκB subunit, p65 (RelA) or NFκB-activated target genes (e.g ICAM-1) were estimated by quantitative real-time RT-PCR, performed using the TaqMan system based on real-time detection of accumulated fluorescence (ABI Prism 7700, Perkin-Elmer Inc, PE Biosystems, Foster City, Calif., USA). Gene expression was normalized to 18S mRNA and reported as fold change compared to the level of expression in untreated control mice/cells, which were given an arbitrary value of 1.
# [1] = molecular target: T1, full length murine ALCAM1-583 (Mus musculus, UniProt Q61490); assay: S100A8/A9-induced PCNA expression in CHO cells transfected with full length murine ALCAM; format: cell-based; conditions: S100A8/A9 1 μM 2 h, co-transfection (FIG. 4A)
# T1 construct: host or cells: AT1R-CHO (CHO stably transfected with human AT1R-Rluc8), transient transfection; untagged clone in pCMV6
# T1 sequence (Q61490 28-583): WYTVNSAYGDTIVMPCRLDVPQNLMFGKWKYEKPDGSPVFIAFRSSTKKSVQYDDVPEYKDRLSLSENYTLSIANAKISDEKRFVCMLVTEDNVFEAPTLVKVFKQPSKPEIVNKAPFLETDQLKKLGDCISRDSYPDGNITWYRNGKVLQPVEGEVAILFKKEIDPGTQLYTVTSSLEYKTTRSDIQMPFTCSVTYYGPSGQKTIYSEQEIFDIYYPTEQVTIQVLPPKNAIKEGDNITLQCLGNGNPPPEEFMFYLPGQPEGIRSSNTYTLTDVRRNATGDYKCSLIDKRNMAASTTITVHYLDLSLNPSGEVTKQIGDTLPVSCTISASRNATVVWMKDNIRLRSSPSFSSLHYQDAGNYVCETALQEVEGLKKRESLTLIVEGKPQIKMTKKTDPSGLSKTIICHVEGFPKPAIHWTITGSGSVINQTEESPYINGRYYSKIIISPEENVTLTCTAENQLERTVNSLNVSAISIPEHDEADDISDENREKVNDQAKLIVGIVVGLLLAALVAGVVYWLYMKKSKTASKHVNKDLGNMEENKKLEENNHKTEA
# Description: as §1
# Oligonucleotides were designed and ordered to generate the ALCAM, BCAM and MCAM intracellular (cytosolic) domains. These included a 5′ NheI site, Kozak sequence and initiating Methionine and then DNA sequences corresponding to ALCAM residues 552-583, BCAM residues 569-628 and MCAM residues 584-637 respectively (Note that as residue 551 of ALCAM is Methionine, the cytosolic tail of ALCAM effectively corresponded to residues 551-583). The pCIneo parental vector was digested with NheI and NotI restriction enzymes, and the DNA of the fragments of the ALCAM, BCAM and MCAM tails/cytosolic domains were ligated into the digested plasmid. […]
# […] Changes in the gene expression of the NFκB subunit, p65 (RelA) or NFκB-activated target genes (e.g ICAM-1) were estimated by quantitative real-time RT-PCR, performed using the TaqMan system based on real-time detection of accumulated fluorescence (ABI Prism 7700, Perkin-Elmer Inc, PE Biosystems, Foster City, Calif., USA). […]
# [2] = molecular target: T1, full length murine ALCAM1-583; assay: Ang II-induced p65/PCNA expression in AT1R-CHO cells transfected with full length murine ALCAM (qRT-PCR); format: cell-based; conditions: Ang II 1 μM 2 h, co-transfection of the construct, vs pCIneo (FIG. 3B, 5B)
# Description: as §1, §2
# as §3, with “Overlapping DNA sequences were ordered to generate the ALCAM559-580 fragment oligonucleotide. These included a 5′ NheI site, Kozak sequence and initiating Methionine and then DNA sequences corresponding to ALCAM residues 559-580. The pCIneo parental vector was digested with NheI and NotI restriction enzymes, and the ALCAM559-580 construct DNA was ligated into the digested plasmid. After transformation and recovery, colonies were screened and individual clones sequenced.” left out
# (§5) After 2 hours of exposure to Ang II (1 μM) cells were placed in Trizol, mRNA extracted and cDNA synthesized. Changes in the gene expression of the NFκB subunit, p65 (RelA) or NFκB-activated target genes (e.g ICAM-1) were estimated by quantitative real-time RT-PCR, performed using the TaqMan system based on real-time detection of accumulated fluorescence (ABI Prism 7700, Perkin-Elmer Inc, PE Biosystems, Foster City, Calif., USA). […]
# [3] = molecular target: T2, cytosolic tail of ALCAM, ALCAM551-583 (Homo sapiens, UniProt Q13740); assay: Ang II-induced ICAM-1 expression in ARPE cells transfected with cytosolic tail of ALCAM; format: cell-based; conditions: Ang II 1 μM
# T2 construct: corresponds to residues 551-583 of ALCAM, with initial Methionine already present; expressed in transfected cells; host or cells: human ARPE (adult retinal pigment epithelial) cells; insert in pCIneo
# T2 sequence (Q13740 551-583 limits assumed): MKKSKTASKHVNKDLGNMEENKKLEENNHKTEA
# Description: as §1
# (§6) Oligonucleotides were designed and ordered to generate the ALCAM, BCAM and MCAM intracellular (cytosolic) domains. These included a 5′ NheI site, Kozak sequence and initiating Methionine and then DNA sequences corresponding to ALCAM residues 552-583, BCAM residues 569-628 and MCAM residues 584-637 respectively (Note that as residue 551 of ALCAM is Methionine, the cytosolic tail of ALCAM effectively corresponded to residues 551-583). […]
# as §5
# [4] = molecular target: T3, cytosolic tail of MCAM, MCAM584-637 (Homo sapiens, UniProt P43121); assay: Ang II-induced ICAM-1 expression in ARPE cells transfected with cytosolic tail of MCAM; format: cell-based; set-up: corresponds to residues 584-637 of MCAM plus an initiating Methionine; initiating Methionine (N); expressed in transfected cells; host or cells: human ARPE (adult retinal pigment epithelial) cells; insert in pCIneo; conditions: Ang II 1 μM, co-transfection (FIG. 2B)
# T3 sequence (P43121 with tags, fused parts or gaps): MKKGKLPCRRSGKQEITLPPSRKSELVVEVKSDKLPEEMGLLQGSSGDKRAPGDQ
# Description: as §1, §6, §5
# [5] = molecular target: T4, human ALCAM (ALCAM1-583, cytosolic tail ALCAM551-583) (Homo sapiens, UniProt Q13740); assay: Ang II-induced p65/PCNA expression in AT1R-CHO cells transfected with human ALCAM (full length or cytosolic tail); format: cell-based; conditions: Ang II 1 μM, co-transfection (FIG. 3G, 1E)
# T4 construct: expressed in transfected cells; host or cells: AT1R-CHO (CHO stably transfected with human AT1R-Rluc8), transient transfection
# T4 sequence (Q13740 551-583): T2 sequence (Q13740 551-583 limits assumed)
# Description: as §1, §2, §3, §4
# [6] = molecular target: T5, cytosolic tail of BCAM, BCAM569-628 (Homo sapiens, UniProt P50895); assay: Ang II-induced ICAM-1 expression in ARPE cells transfected with cytosolic tail of BCAM; format: cell-based; set-up: corresponds to residues 569-628 of BCAM plus an initiating Methionine; initiating Methionine (N); expressed in transfected cells; host or cells: human ARPE (adult retinal pigment epithelial) cells; insert in pCIneo; conditions: Ang II 1 μM, treatment with oligopeptide (FIG. 2C)
# T5 sequence (P50895 with tags, fused parts or gaps): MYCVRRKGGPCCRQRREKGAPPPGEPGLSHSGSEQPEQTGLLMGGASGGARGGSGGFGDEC
# Description: as §1, §6, §5
# [7] = molecular target: T3, cytosolic tail of MCAM, MCAM584-637; assay: Ang II-induced p65 expression in AT1R-CHO cells transfected with cytosolic tail of MCAM; format: cell-based; set-up: corresponds to residues 584-637 of MCAM plus an initiating Methionine; initiating Methionine (N); expressed in transfected cells; host or cells: AT1R-CHO (CHO stably transfected with human AT1R-Rluc8); insert in pCIneo; conditions: Ang II 1 μM, co-transfection (FIG. 3I)
# Description: as §1, §2
# (§7) Oligonucleotides were designed and ordered to generate the ALCAM, BCAM and MCAM intracellular (cytosolic) domains. […]
# as §5
# [8] = molecular target: T6, cytosolic tail of human CADM4, CADM4346-388 (Homo sapiens, UniProt Q8NFZ8); assay: Ang II-induced p65 expression in AT1R-CHO cells transfected with cytosolic tail of CADM4; format: cell-based; conditions: Ang II 1 μM, co-transfection (FIG. 3K)
# T6 construct: initiating Methionine (N); expressed in transfected cells; host or cells: AT1R-CHO (CHO stably transfected with human AT1R-Rluc8), transient transfection
# T6 sequence (Q8NFZ8 with tags, fused parts or gaps): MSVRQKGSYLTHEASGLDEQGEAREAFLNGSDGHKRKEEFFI
# Description: as §1, §2, §4
# [9] = molecular target: T5, cytosolic tail of BCAM, BCAM569-628; assay: Ang II-induced p65 expression in AT1R-CHO cells transfected with cytosolic tail of BCAM; format: cell-based; set-up: corresponds to residues 569-628 of BCAM plus an initiating Methionine; initiating Methionine (N); expressed in transfected cells; host or cells: AT1R-CHO (CHO stably transfected with human AT1R-Rluc8); insert in pCIneo; conditions: Ang II 1 μM, co-transfection (FIG. 3H)
# Description: as §1, §2, §7, §5
# [10] = molecular target: T7, cytosolic tail of human EpCAM, EpCAM289-314 (Homo sapiens, UniProt P16422); assay: Ang II-induced p65 expression in AT1R-CHO cells transfected with cytosolic tail of EpCAM; format: cell-based; conditions: Ang II 1 μM, co-transfection (FIG. 3J)
# T7 construct: corresponds to residues 289-314 of EpCAM plus an initiating Methionine; initiating Methionine (N); expressed in transfected cells; host or cells: AT1R-CHO (CHO stably transfected with human AT1R-Rluc8), transient transfection
# T7 sequence (P16422 with tags, fused parts or gaps limits assumed): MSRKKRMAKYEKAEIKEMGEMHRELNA
# Description: as §1, §2, §4
Sequence,induction of p65 expression by Ang II when the construct alone is expressed (AT1R-CHO cells),induction of p65 expression following exposure to S100A8/9 when the construct alone is expressed (AT1R-CHO cells),ligand-dependent signalling (PCNA expression) via murine ALCAM activated by S100A8/A9 [1],induction of p65-NFκB expression by Ang II via AT1R-dependent transactivation of full length murine ALCAM1-583 [2],NFKB-dependent induction of ICAM-1 gene expression by Ang II via ALCAM551-583 ([3]; co-transfection (FIG. 2A)),NFKB-dependent induction of ICAM-1 gene expression by Ang II via MCAM584-637 [4],"induction of p65-NFκB expression by Ang II via transactivation of the cytosolic tail of human ALCAM, ALCAM551-583 [5]",proinflammatory signalling (ICAM-1) induced by Ang II mediated by the cytosolic tail of ALCAM ([3]; treatment with oligopeptide (FIG. 2C)),NFKB-dependent induction of ICAM-1 gene expression by Ang II via BCAM569-628 [6],induction of p65-NFκB expression by Ang II via transactivation of MCAM584-637 [7],induction of p65-NFκB expression by Ang II via transactivation of CADM4346-388 [8],induction of p65-NFκB expression by Ang II via transactivation of BCAM569-628 [9],induction of p65-NFκB expression by Ang II via transactivation of EpCAM289-314 [10]
MGEERKAPENQEEEEERAELNQ [RAGE370-390],no induction of p65 expression is observed,no induction of p65 expression is observed,inhibited,inhibited,inhibited,inhibited,inhibited,,,,,,
"MLWQRRQRRGEERKAPENQEEEEERAELNQAEEPEAGESSTGGP (Synthetic peptide - Truncated amino acid sequence of human RAGE protein corresponding to residues 362 to 404 of human RAGE protein with a mutation of Serine 391 to Alanine plus an initiating methionine residue) [S391A-RAGE362-404, entire cytosolic tail of RAGE with serine391 mutated to alanine]",,,,,,,,inhibited,inhibited,,,,
QEEEEERAELNQ (Synthetic peptide - Truncated amino acid sequence corresponding to residues 379 to 390 of human RAGE protein) [RAGE379-390],no induction of p65 expression is observed,no induction of p65 expression is observed,,,,,prevents induction,,,prevents induction,prevents induction,prevents induction,prevents induction
